Data set [1] concerns the target T1, Trbp111 (Aquifex aeolicus, UniProt O66738 1-111). Description: competition fluorescence polarization; ITC (Arc1p): 25 mM Tris-HCl pH 7.4, 150 mM NaCl, 2 mM MgCl2, 25 °C. FP and competition FP: 25 mM Tris-HCl pH 7.5, 150 mM NaCl (Arc1p) or 50 mM NaCl (Trbp111), 2 mM MgCl2, room temperature. Particulars: protein: recombinant, tags: His-MBP removed (PreScission), chain copies: 2. (In general: Polarisation of emitted light reports the rotation of a fluorescent probe.)

For data set [2], the target named is T1, Trbp111. Kind of data set: competition FP; vs fluorescein-tRNATyr; FP: 25 mM Tris-HCl pH 7.5, 2 mM MgCl2, 50 mM NaCl (Trbp111) or 150 mM NaCl (Arc1p), room temperature; ITC: 25 mM Tris-HCl pH 7.4, 150 mM NaCl, 2 mM MgCl2, 25 C. Particulars: protein: recombinant, tags: His-MBP removed (PreScission), chain copies: 2.
Data set [3] addresses T2, Arc1p dN (Saccharomyces cerevisiae, UniProt P46672 132-376, del1-131).
T2 sequence: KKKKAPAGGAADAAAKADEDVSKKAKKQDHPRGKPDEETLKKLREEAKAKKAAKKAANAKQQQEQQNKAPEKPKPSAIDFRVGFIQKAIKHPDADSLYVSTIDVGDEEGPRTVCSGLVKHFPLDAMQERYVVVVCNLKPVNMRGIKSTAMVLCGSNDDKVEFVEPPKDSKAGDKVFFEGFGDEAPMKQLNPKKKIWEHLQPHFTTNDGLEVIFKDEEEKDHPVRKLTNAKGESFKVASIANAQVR
Description: competition fluorescence polarization; ITC (Arc1p): 25 mM Tris-HCl pH 7.4, 150 mM NaCl, 2 mM MgCl2, 25 °C. FP and competition FP: 25 mM Tris-HCl pH 7.5, 150 mM NaCl (Arc1p) or 50 mM NaCl (Trbp111), 2 mM MgCl2, room temperature. The conditions noted are these: protein: recombinant, tags: His-MBP removed.

Data set [4] addresses T2, Arc1p dN. Kind of data set: competition FP; FP: 25 mM Tris-HCl pH 7.5, 2 mM MgCl2, 50 mM NaCl (Trbp111) or 150 mM NaCl (Arc1p), room temperature; ITC: 25 mM Tris-HCl pH 7.4, 150 mM NaCl, 2 mM MgCl2, 25 C. Particulars: protein: recombinant; tags: His-MBP removed; hairpin.
Data set [5] has as its target T2, Arc1p dN. The data set is described as above. Particulars: protein: recombinant; tags: His-MBP removed; hairpin. This is another data set of the same source.
Data set [6] addresses T2, Arc1p dN. Kind of data set: 2AP fluorescence lifetime; 20 uM protein: 4.76 to 6.2 ns; FP: 25 mM Tris-HCl pH 7.5, 2 mM MgCl2, 50 mM NaCl (Trbp111) or 150 mM NaCl (Arc1p), room temperature; ITC: 25 mM Tris-HCl pH 7.4, 150 mM NaCl, 2 mM MgCl2, 25 C. The conditions noted are these: protein: recombinant; tags: His-MBP removed; label: 2AP; hairpin.
Data set [7] has as its target T1, Trbp111. Description: 2AP fluorescence lifetime; 60 uM protein: 4.73 to 5.76 ns; FP: 25 mM Tris-HCl pH 7.5, 2 mM MgCl2, 50 mM NaCl (Trbp111) or 150 mM NaCl (Arc1p), room temperature; ITC: 25 mM Tris-HCl pH 7.4, 150 mM NaCl, 2 mM MgCl2, 25 C. Particulars: protein: recombinant; tags: His-MBP removed (PreScission); chain copies: 2; label: 2AP; hairpin.
In data set [8] the target is T2, Arc1p dN. Kind of data set: 2AP fluorescence lifetime; 20 uM protein: 5.46 to 6.26 ns; FP: 25 mM Tris-HCl pH 7.5, 2 mM MgCl2, 50 mM NaCl (Trbp111) or 150 mM NaCl (Arc1p), room temperature; ITC: 25 mM Tris-HCl pH 7.4, 150 mM NaCl, 2 mM MgCl2, 25 C. The conditions noted are these: protein: recombinant; tags: His-MBP removed; label: 2AP; hairpin.
Another data set deals with T3, Arc1p (Saccharomyces cerevisiae, UniProt P46672 1-376).
T3 sequence: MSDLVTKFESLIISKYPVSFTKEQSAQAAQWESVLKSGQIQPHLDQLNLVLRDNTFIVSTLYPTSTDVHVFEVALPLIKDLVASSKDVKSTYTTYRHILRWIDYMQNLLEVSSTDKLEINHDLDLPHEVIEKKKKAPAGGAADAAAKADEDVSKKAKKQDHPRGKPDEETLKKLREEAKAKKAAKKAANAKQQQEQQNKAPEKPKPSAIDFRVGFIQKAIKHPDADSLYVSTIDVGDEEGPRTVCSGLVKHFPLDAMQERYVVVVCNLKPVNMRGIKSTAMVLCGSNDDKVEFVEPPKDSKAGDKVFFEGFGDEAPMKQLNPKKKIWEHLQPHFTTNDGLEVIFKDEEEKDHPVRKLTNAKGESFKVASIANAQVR
Kind of data set: competition fluorescence polarization; ITC (Arc1p): 25 mM Tris-HCl pH 7.4, 150 mM NaCl, 2 mM MgCl2, 25 °C. FP and competition FP: 25 mM Tris-HCl pH 7.5, 150 mM NaCl (Arc1p) or 50 mM NaCl (Trbp111), 2 mM MgCl2, room temperature. Particulars: protein: recombinant, tags: His-MBP removed.

The target in data set [9] is T1, Trbp111. Kind of data set: competition FP; FP: 25 mM Tris-HCl pH 7.5, 2 mM MgCl2, 50 mM NaCl (Trbp111) or 150 mM NaCl (Arc1p), room temperature; ITC: 25 mM Tris-HCl pH 7.4, 150 mM NaCl, 2 mM MgCl2, 25 C. Particulars: protein: recombinant; tags: His-MBP removed (PreScission); chain copies: 2; hairpin.

T1 sequence (O66738 entry or part of it): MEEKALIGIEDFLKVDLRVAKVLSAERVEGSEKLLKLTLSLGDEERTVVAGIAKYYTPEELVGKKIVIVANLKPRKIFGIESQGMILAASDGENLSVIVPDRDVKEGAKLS

Regarding CCACUCAGGCCUACCA (ssRNA) [ssRNA 3'ACCA], the results for the IC50 with Trbp111 [1] (single strand) and with Trbp111 [2] (single strand) were 8.63 ± 0.796 µM and 8.2 ± 0.8 µM, respectively.
On to AGGCUUUUCAAGUAGGCCUACCA (structured_RNA) [MicroH], for which the half-inhibitory concentration (IC50) was found to be 7.32 ± 0.991 µM with Trbp111 [1] (hairpin), 4.66 ± 0.769 µM with Arc1p dN [3] (hairpin) and 7.2 ± 1 µM with Trbp111 [2] (hairpin). For the same molecule, the binding signal in the data set with Arc1p dN [4] is around 10 fold weaker than tRNA.
On the same counts, the results for AGGCUUGGGUGGUUCAAGUCCACUCAGGCCUACCA (structured_RNA) [MiniH] are 5.96 ± 1.02 µM, 3.69 ± 0.931 µM, 6.5 ± 1 µM and around 10 fold weaker than tRNA.
Take AGGCUUGGGUGGUUCAAGUCCACUCAGGCCUACCG (structured_RNA) [MiniH-ACCG]: the IC50 in the data set with Arc1p dN [3] (hairpin) is 7.58 ± 2.9 µM. In the data set with Arc1p dN [5], the binding signal was around 2 fold weaker than MiniH.
AGGCUUGGGUGGUUCAAGUCCACUCAGGCCUACAA (structured_RNA, 2-aminopurine at position 75) [MiniH-AC-2AP-A]: the binding result with Arc1p dN [6] and in the data set with Trbp111 [7] was “binds” throughout.
As to AGGCUUGGGUGGUUCAAGUCCACUCAGGCCUACCC (structured_RNA) [MiniH-ACCC], in the data set with Arc1p dN [3] (hairpin), the IC50 amounted to 13.2 ± 4.95 µM. Further, in the data set with Arc1p dN [5], the binding signal was around 3 fold weaker than MiniH.
On the same counts, the results for AGGCUUGGGUGGUUCAAGUCCACUCAGGCCUACCU (structured_RNA) [MiniH-ACCU] are 11.8 ± 2.67 µM and around 3 fold weaker than MiniH.
With AGGCUUGGGUGGUUCAAGUCCACUCAGGCCUACCA (structured_RNA, 2-aminopurine at position 76) [MiniH-ACC-2AP], the binding result with Arc1p dN [8] is on record as “binds”.

B1: tRNATyr G17C/G18C (structured_RNA)
RNA: GGUGGGGUUCCCGAGCCCCCAAAGGGAGCAGACUGUAAAUCUGCCGUCAUCGACUUCGAAGGUUCGAAUCCUUCCCCCACCACCA
With B1, the IC50 in the data set with Arc1p was 4.52 µM; with Arc1p dN [3], 0.652 ± 0.0471 µM.

B2: tRNAIle ASL-GAAA dACCA 3bp (structured_RNA)
RNA: GGCGGGCUUGUAGCUCAGGUGGUUAGAGCGCACCGCGAAAGCGGUGAGGUCGGUGGUUCAAGUCCACUCAGGCCCGCC
As to B2, the IC50 with Arc1p worked out at 9.92 µM; with Arc1p dN [3] it was 0.681 ± 0.201 µM.

B3: S. cerevisiae tRNAAsp (G1-C72) (structured_RNA)
RNA: GCCGUGAUAGUUUAAUGGUCAGAAUGGGCGCUUGUCGCGUGCCAGAUCGGGGUUCAAUUCCCCGUCGCGGCGCCA
Turning to B3, the 50% inhibitory concentration (IC50) with Arc1p turned out to be 1.71 ± 0.125 µM; in the data set with Arc1p dN [3], 0.402 ± 0.0538 µM.
Turning to AGGCUUGGGUGGUUCAAGUCCACUCAGGCCUCA (structured_RNA) [MiniH dA73/dC74], the IC50 with Trbp111 [1] (hairpin) was found to be 2.17 ± 0.151 µM; in the data set with Arc1p dN [3] (hairpin), 2.78 ± 0.339 µM. In addition, in the data set with Trbp111 [9], the binding signal is ~3 fold higher affinity than MiniH.

B4: tRNATyr ASL-GAAA dACCA 6bp (structured_RNA)
RNA: GGGCCCGGUGGGGUUCCCGAGCGGCCAAAGGGAGCAGACGAAAGUCUGCCGUCAUCGACUUCGAAGGUUCGAAUCCUUCCCCCACCGGGCCC
As for B4, the IC50 with Arc1p turned out to be 5.11 µM; with Arc1p dN [3], 1.02 ± 0.224 µM.

B5: human mascRNA (structured_RNA)
RNA: GAUGCUGGUGGUUGGCACUCCUGGUUUCCAGGACGGGGUUCAAAUCCCUGCGGCGUCUCCA
Regarding B5, the IC50 with Arc1p (tRNA-like) amounted to 1.14 ± 0.127 µM; with Arc1p dN [3] (tRNA-like), 0.377 ± 0.0571 µM.

A word on the IC50: it is the midpoint of a concentration-inhibition curve.

The record behind these values is publication PMC11286949, “Structural basis of tRNA recognition by the widespread OB fold”.
